Source: US20210238276A1 (INTEGRAL MOLECULAR, published 2021)

Columns and labels:
Assay in all cases: flow cytometry, alanine-scan library in HEK-293T, with cytochalasin B
hsGLUT4 F314A = target: T1, hsGLUT4 F314A (human, UniProt P14672 1-509)
T1 sequence: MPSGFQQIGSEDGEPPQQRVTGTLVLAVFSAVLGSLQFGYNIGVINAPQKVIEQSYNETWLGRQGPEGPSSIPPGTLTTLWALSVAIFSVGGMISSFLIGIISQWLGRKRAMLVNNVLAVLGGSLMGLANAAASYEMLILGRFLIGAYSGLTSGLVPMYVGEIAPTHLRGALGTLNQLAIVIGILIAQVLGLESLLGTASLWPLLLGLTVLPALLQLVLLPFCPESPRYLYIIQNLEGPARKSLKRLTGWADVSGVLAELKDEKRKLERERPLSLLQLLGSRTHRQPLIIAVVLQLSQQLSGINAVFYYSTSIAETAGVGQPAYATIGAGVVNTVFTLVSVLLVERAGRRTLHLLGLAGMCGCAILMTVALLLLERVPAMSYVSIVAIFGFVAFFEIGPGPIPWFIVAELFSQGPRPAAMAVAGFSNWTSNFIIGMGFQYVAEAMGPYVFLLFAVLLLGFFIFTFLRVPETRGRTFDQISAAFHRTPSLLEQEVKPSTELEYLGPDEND
Description: (§1) Because of the state-dependence of the isolated MAbs, we next wished to understand the mechanism by which each MAb could recognize GLUT4 in its different conformations. The residues required for binding of each MAb were determined using shotgun mutagenesis comprehensive alanine scanning (Davidson E & Doranz B J (2014) A High-Throughput Shotgun Mutagenesis Approach to Mapping B-cell Antibody Epitopes. Immunology, which is hereby incorporated by reference in its entirety). All residues of hsGLUT4 were individually mutated to alanine, with existing alanines changed to serines. Mutations were obtained for 508 of the 509 residues of GLUT4 (excluding the initiating methionine). The entire mutation library was transfected into human HEK-293T cells in a 384-well array format (one clone per well) and assessed for immunoreactivity using high-throughput flow cytometry.
(§2) HEK-293T cells were transfected by CaPO₄ with plasmids in 6-well culture plates (Falcon) at 750,000 cells/well. At 48 hours post transfection, cells were stained with anti-V5 and anti-GLUT4 MAbs (purified scFv, 2 μg/ml) followed by biotinylated goat anti-mouse or human antibody (1:500) and streptavidin-PerCP (1:500). Fluorescence was detected using an Intellicyt high-throughput flow cytometer (HTFC; Intellicyt, Albuquerque, N. Mex.). For cell permeabilization, cells were treated with saponin at 0.1% in PBS for 20 minutes. To discriminate intact (live) and permeabilized (dead) cells without the use of detergent, propidium iodide (PI) was added to HEK-293T cells at 1 ug/ml just prior to flow cytometry. Where indicated, cytochalasin B (Sigma) was used at a final concentration of 10 uM and phloretin (Sigma) was used at a final concentration of 100 uM, each added in 10% NGS for 30 minutes prior to antibody staining as well as included with the primary antibody.

hsGLUT4 E345A = target: T2, hsGLUT4 E345A (human, UniProt P14672 1-509)
T2 sequence: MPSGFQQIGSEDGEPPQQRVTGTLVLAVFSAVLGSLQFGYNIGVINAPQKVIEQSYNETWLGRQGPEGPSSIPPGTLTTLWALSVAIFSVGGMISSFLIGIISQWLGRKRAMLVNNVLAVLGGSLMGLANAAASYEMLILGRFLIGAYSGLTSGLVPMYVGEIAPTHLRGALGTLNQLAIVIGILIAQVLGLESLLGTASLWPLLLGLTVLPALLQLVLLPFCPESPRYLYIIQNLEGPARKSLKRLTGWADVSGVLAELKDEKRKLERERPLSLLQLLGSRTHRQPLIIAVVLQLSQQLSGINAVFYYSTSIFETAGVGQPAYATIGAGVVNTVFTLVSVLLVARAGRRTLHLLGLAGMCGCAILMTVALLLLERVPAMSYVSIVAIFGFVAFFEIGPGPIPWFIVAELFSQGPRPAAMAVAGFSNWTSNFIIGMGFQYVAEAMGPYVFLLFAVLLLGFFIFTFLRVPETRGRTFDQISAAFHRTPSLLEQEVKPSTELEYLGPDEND
Description: as §1, §2

hsGLUT4 Y309A = target: T3, hsGLUT4 Y309A (human, UniProt P14672 1-509)
T3 sequence: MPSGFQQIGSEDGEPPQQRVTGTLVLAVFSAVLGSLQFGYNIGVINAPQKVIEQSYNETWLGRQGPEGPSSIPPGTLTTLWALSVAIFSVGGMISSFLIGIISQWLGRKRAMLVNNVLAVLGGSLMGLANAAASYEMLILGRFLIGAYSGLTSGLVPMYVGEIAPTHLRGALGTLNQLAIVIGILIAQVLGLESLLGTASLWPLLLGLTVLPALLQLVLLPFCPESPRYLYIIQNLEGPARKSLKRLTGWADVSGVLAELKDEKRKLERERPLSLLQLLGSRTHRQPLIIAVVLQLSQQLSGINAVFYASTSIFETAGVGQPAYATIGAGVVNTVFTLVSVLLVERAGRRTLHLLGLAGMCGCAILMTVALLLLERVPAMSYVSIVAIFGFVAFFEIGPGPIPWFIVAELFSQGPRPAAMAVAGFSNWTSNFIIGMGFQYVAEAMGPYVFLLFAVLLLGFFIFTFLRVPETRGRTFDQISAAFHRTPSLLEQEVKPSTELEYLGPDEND
Description: as §1, §2

hsGLUT4 N508A = target: T4, hsGLUT4 N508A (human, UniProt P14672 1-509)
T4 sequence: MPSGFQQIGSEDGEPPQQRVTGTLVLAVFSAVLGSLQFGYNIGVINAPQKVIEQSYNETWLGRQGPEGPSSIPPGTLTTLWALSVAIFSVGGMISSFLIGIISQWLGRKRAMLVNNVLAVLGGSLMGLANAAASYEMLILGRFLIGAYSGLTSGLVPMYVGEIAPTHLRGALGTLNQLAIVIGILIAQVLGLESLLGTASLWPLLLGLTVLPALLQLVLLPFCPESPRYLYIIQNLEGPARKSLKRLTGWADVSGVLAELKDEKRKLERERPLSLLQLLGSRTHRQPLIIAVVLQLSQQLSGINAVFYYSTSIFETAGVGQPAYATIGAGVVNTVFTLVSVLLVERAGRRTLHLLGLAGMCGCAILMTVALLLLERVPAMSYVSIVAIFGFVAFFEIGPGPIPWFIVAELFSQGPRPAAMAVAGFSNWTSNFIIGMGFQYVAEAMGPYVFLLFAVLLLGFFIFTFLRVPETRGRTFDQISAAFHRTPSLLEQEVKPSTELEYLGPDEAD
Description: as §1, §2

- % of binding to wild type GLUT4 (hsGLUT4 F314A): 23%
- % of binding to wild type GLUT4 (hsGLUT4 E345A): 80%
- % of binding to wild type GLUT4 (hsGLUT4 Y309A): 24%
- % of binding to wild type GLUT4 (hsGLUT4 N508A): 70%
B1: AB102 (Fc fusion)
scFv: ALTQPSSVSANLGGTVKITCSGGGSYGYGWYQQKSPGSAPVTVIYSNDQRPSDIPSRFSGSKSGSTATLTITGVRAEDEAIYYCGSTDSDYVGIFGAGTTLTVLGQSSRSSGGGGSSGGGGSAVTLDESGGGLQTPGGTLSLVCKASGFDFSSYATIWVRQAPGKGLEWVAGISGTGTGSSTGYAPAVKGRATISRDNGQSTVRLQLNNLRAEDTGSYFCAKSTGYGDSWIYPDSIDAWGHGTEVIVSS
notes: also called MAb AB102; not shown: Fc fragment of human IgG1, cloned in frame with the scFv
